According to patent publication US12281340B2, “Method of producing N-acyl-amino group-containing compound” (AJINOMOTO CO., INC., priority 2018, dated 2025):

B1: CfHP: hypothetical protein from Cystobacter fuscus (GH3 protein), His-tagged (protein, listed as Cystobacter fuscus)
chain: MQAAGRRDKQRFIEQTRHVARVNVDTLRAILQHNRDTDFGRRHGFASLRTVEDFQRALPVSTYEPFRPYMERIARGEQNVLTADRVEYLGITSGTTGQRKLLPVSRPHLENMRRTMMIGRAVVTEKVPAARRPSRGMILMNAVLRERSEGGLLTGALTAISTHSMGRAASFAFTSPPEAFRLRKHADALYLHLLFGLRERELGTLMAPFASGLLDMVHLLERRGADLVDDIARGVLRPELDLEPEQRRLLQSRLLPDPERAREVSQALEQGPHGLLRRLWPRLAYVSSITGASFSLYTRQLTPYLEGVPLSAASYVSTEGILGVPLELEQAVYCLMVGMAFFEFIPERELDAESPTTLLPEQLVEGEAYEVVLTTQAGLYRYRLGDVVRIVGRYHEAPLMEFLYRRGALLNLMGEKTSEHAARLALEQALATEGLLPADYSVVEETETLPGRYALFVELQEGARPQGAPEQLSRALEEALCRTNPFYEVIRRSERLGAAQLHRVEPGTFQALRDVLVQRGASPTQVKVPRVVRDAELQGLLRQRRVTG
modifications: His-tag
notes: hypothetical protein from Cystobacter fuscus (GH3 protein), His-tagged
B2: AtGH3-6: indole-3-acetic acid-amido synthetase GH3.6 from Arabidopsis thaliana, expressed in E. coli with N-terminal His-tag (protein, listed as Arabidopsis thaliana)
chain: MPEAPKIAALEVSDESLAEKNKNKLQFIEDVTTNADDVQRRVLEEILSRNADVEYLKRHGLEGRTDRETFKHIMPVVTYEDIQPEINRIANGDKSQVLCSNPISEFLTSSGTSGGERKLMPTIEEELDRRSLLYSLLMPVMDQFVPGLDKGKGMYFLFIKSESKTPGGLPARPVLTSYYKSSHFKNRPYDPYTNYTSPNQTILCSDSYQSMYSQMLCGLCQHKEVLRVGAVFASGFIRAIKFLEKHWPELARDIRTGTLSSEITDSSVREAVGEILKPDPKLADFVESECRKTSWQGIITRLWPNTKYVDVIVTGTMSQYIPTLDYYSNGLPLVCTMYASSECYFGVNLRPLCKPSEVSYTLIPNMAYFEFLPVHRNSGVTSSISLPKALTEKEQQELVDLVDVKLGQEYELVVTTYAGLYRYRVGDVLSVAGFKNNAPQFSFICRKNVVLSIDSDKTDEVELQNAVKNAVTHLVPFDASLSEYTSYADTSSIPGHYVLFWELCLNGNTPIPPSVFEDCCLTIEESLNSVYRQGRVSDKSIGPLEIKMVESGTFDKLMDYAISLGASINQYKTPRCVKFAPIIELLNSRVVDSYFSPKCPKWSPGHKQWGSN
modifications: N-terminal His-tag
notes: indole-3-acetic acid-amido synthetase GH3.6 from Arabidopsis thaliana, expressed in E. coli with N-terminal His-tag

Experiments:
Type in all cases: biochemical
[1] = Synthesis of N-caprinoylamino acid using purified acylamino acid synthetase, UPLC-MS detection; design: key: +: Detected; −: Not detected; details: +ATP
In short: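 Purified enzyme (50 μg) with 5 mM amino acid, 5 mM sodium caprate, 10 mM ATP, 10 mM MgCl2, 1 mM DTT in Tris-HCl pH 8.0, 24 h at 25° C; product detected by UPLC-MS (ESI-negative) as the N-caprinoyl amino acid mass signal.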

[2] = Quantification of produced N-acylamino acid (UV 210 nm) using purified acylamino acid synthetase; details: 5 mM sodium fatty acid, 200 μg/mL enzyme, 25° C., 24 hours
Description: 0.1 mL of a reaction solution containing 50 mM Tris-HCl, 5 mM amino acid, 5 mM sodium fatty acid, 10 mM ATP, 10 mM MgCl2, 1 mM DTT, 200 μg/mL of the purified enzyme, pH 8.0 was incubated at 25° C. for 24 hours. As amino acids, L-Asp was used in AtGH3-6, OsGH3-8, AtGH3-5, AtGH3-12, and Gly or L-Ala was used in CfHP. After completion of the reaction, 0.4 mL of the reaction stop solution (1% (v/v) phosphoric acid, 75% (v/v) methanol) was added, and the mixture was filtrated through the filter followed by being subjected to the UPLC-MS analysis to quantify the produced N-acylamino acid by detection at UV 210 nm. The condition for the UPLC-MS analysis is as descried in Example 2. As a result of the analysis, 3.9 mM of Nα-capryloyl-L-aspartic acid, 4.5 mM of Nα-caprinoyl-L-aspartic acid and 2.2 mM of Nα-lauroyl-L-aspartic acid were detected when AtGH3-6 was used; 4.3 mM of Nα-capryloyl-L-aspartic acid, 4.6 mM of Nα-caprinoyl-L-aspartic acid and 3.5 mM of Nα-lauroyl-L-aspartic acid were detected when OsGH3-8 was used; 4.1 mM of Nα-capryloyl-L-aspartic acid, 4.6 mM of Nα-caprinoyl-L-aspartic acid and 2.5 mM of Nα-lauroyl-L-aspartic acid were detected when AtGH3-5 was used; 1.6 mM of Nα-capryloyl-L-aspartic acid, 0.6 mM of Nα-caprinoyl-L-aspartic acid and 0.2 mM of Nα-lauroyl-L-aspartic acid were detected when AtGH3-12 was used; 4.5 mM of Nα-capryloylglycine, 4.6 mM of Nα-caprinoylglycine, 0.1 mM of Nα-lauroylglycine, 3.1 mM of Nα-capryloyl-L-alanine, 3.6 mM of Nα-caprinoyl-L-alanine and 0.4 mM of Nα-lauroyl-L-alanine were detected when CfHP was used.

[3] = Synthesis of N-lauroylamino acid / N-lauroylamino acid derivative using purified acylamino acid synthetase, UPLC-MS detection; design: key: +: Detected; −: Not detected; details: +ATP
Description: 0.2 mL of a reaction solution containing 50 mM Tris-HCl, 5 mM amino acid or D-amino acid derivative, 5 mM sodium laurate, 10 mM ATP, 10 mM MgCl2, 1 mM DTT, 200 μg/mL of the purified enzyme, pH 8.0 was incubated at 25° C. for 24 hours. After completion of the reaction, 0.8 mL of the reaction stop solution (1% (v/v) phosphoric acid, 75% (v/v) methanol) was added, and the mixture was filtrated through the filter followed by being subjected to the UPLC-MS analysis to detect a signal of a molecular weight corresponding to an N-lauroyl-amino acid or an N-lauroyl-amino acid derivative. The condition for the UPLC-MS analysis is as described in Example 2.
As a result of the UPLC-MS analysis, the signal of the molecular weight corresponding to the N-lauroyl-amino acid or the N-lauroyl-amino acid derivative was confirmed in the reaction solution containing the enzyme in combination with the amino acid or the amino acid derivative shown in Table 5 below.

[4] = substrates GABA and sodium caprate
[5] = substrates Gly and sodium caprate
[6] = substrates L-Ala and sodium caprate
[7] = substrates L-Arg and sodium caprate
[8] = substrates L-Asn and sodium caprate
[9] = substrates L-Asp and sodium caprate
[10] = substrates L-Cys and sodium caprate
[11] = substrates L-Gln and sodium caprate
[12] = substrates L-Glu and sodium caprate
[13] = substrates L-His and sodium caprate
[14] = substrates L-Ile and sodium caprate
[15] = substrates L-Leu and sodium caprate
[16] = substrates L-Lys and sodium caprate
[17] = substrates L-Met and sodium caprate
[18] = substrates L-Phe and sodium caprate
[19] = substrates L-Pro and sodium caprate
[20] = substrates L-Ser and sodium caprate
[21] = substrates L-Thr and sodium caprate
[22] = substrates L-Trp and sodium caprate
[23] = substrates L-Tyr and sodium caprate
[24] = substrates L-Val and sodium caprate
[25] = substrates β-Ala and sodium caprate

| Molecule | signal of molecular weight corresponding to N-caprinoyl amino acid [1, 4] | signal of molecular weight corresponding to N-caprinoyl amino acid [1, 5] | signal of molecular weight corresponding to N-caprinoyl amino acid [1, 6] | signal of molecular weight corresponding to N-caprinoyl amino acid [1, 7] | signal of molecular weight corresponding to N-caprinoyl amino acid [1, 8] | signal of molecular weight corresponding to N-caprinoyl amino acid [1, 9] | signal of molecular weight corresponding to N-caprinoyl amino acid [1, 10] | signal of molecular weight corresponding to N-caprinoyl amino acid [1, 11] | signal of molecular weight corresponding to N-caprinoyl amino acid [1, 12] | signal of molecular weight corresponding to N-caprinoyl amino acid [1, 13] | signal of molecular weight corresponding to N-caprinoyl amino acid [1, 14] | signal of molecular weight corresponding to N-caprinoyl amino acid [1, 15] | signal of molecular weight corresponding to N-caprinoyl amino acid [1, 16] | signal of molecular weight corresponding to N-caprinoyl amino acid [1, 17] | signal of molecular weight corresponding to N-caprinoyl amino acid [1, 18] | signal of molecular weight corresponding to N-caprinoyl amino acid [1, 19] | signal of molecular weight corresponding to N-caprinoyl amino acid [1, 20] | signal of molecular weight corresponding to N-caprinoyl amino acid [1, 21] | signal of molecular weight corresponding to N-caprinoyl amino acid [1, 22] | signal of molecular weight corresponding to N-caprinoyl amino acid [1, 23] | further results |
| --- | --- | --- | --- | --- | --- | --- | --- | --- | --- | --- | --- | --- | --- | --- | --- | --- | --- | --- | --- | --- | --- |
| B1 | + | + | + | + | + | + | + | + | + | + | + | + | + | + | + | + | + | + | + | + | signal of molecular weight corresponding to N-caprinoyl amino acid [1, 24]: +; signal of molecular weight corresponding to N-caprinoyl amino acid [1, 25]: +; Nα-caprinoylglycine detected ([2]; 5 mM Gly): 4.6 mM; Nα-capryloylglycine detected ([2]; 5 mM Gly): 4.5 mM; Nα-lauroylglycine detected ([2]; 5 mM Gly): 0.1 mM; Nα-caprinoyl-L-alanine detected ([2]; 5 mM L-Ala): 3.6 mM; Nα-capryloyl-L-alanine detected ([2]; 5 mM L-Ala): 3.1 mM; Nα-lauroyl-L-alanine detected ([2]; 5 mM L-Ala): 0.4 mM |
| B2 | + | + | + | + | + | + | + | + | + | + | + | + | + | + | + | + | + | + | + | + | signal of molecular weight corresponding to N-caprinoyl amino acid [1, 24]: +; signal of molecular weight corresponding to N-caprinoyl amino acid [1, 25]: +; Nα-caprinoyl-L-aspartic acid detected ([2]; 5 mM L-Asp): 4.5 mM; Nα-capryloyl-L-aspartic acid detected ([2]; 5 mM L-Asp): 3.9 mM; Nα-lauroyl-L-aspartic acid detected ([2]; 5 mM L-Asp): 2.2 mM; signal of molecular weight corresponding to N-lauroyl amino acid ([3]; substrates Gly and sodium laurate): +; signal of molecular weight corresponding to N-lauroyl amino acid ([3]; substrates L-Ala and sodium laurate): +; signal of molecular weight corresponding to N-lauroyl amino acid ([3]; substrates L-Arg and sodium laurate): +; signal of molecular weight corresponding to N-lauroyl amino acid ([3]; substrates L-Asp and sodium laurate): +; signal of molecular weight corresponding to N-lauroyl amino acid ([3]; substrates L-Glu and sodium laurate): +; signal of molecular weight corresponding to N-lauroyl amino acid ([3]; substrates L-Lys and sodium laurate): +; signal of molecular weight corresponding to N-lauroyl amino acid ([3]; substrates L-Thr and sodium laurate): +; signal of molecular weight corresponding to N-lauroyl amino acid ([3]; substrates β-Ala and sodium laurate): + |
